What was measured:
Details in all cases: both partners purified
Amyloid β 1-42 oligomer [1] = molecular target: T1, Amyloid β 1-42 oligomer (UniProt P05067 672-713); test: far-Western, overlay or dot blot; Aβ42 20 μM incubated with bFg or hFg (0.03, 0.3, 3 μM) for 1 h at 37 °C in 50 mM phosphate/200 mM NaCl pH 7.4, then dotted; loss of the spot intensity of antibody 4G8 (monomer) or A11 (oligomer) taken as binding by steric hindrance; apparent Kd from fit or simulation with eq S6
T1 construct: numbers count on: the Aβ peptide; granular particles of 5.0 ± 0.9 nm height in AFM; read out with antibody A11 in the dot blot; also called Aβ42 oligomer; Aβ oligomers; source: formed from bought Aβ42 (Peptide Institute, Inc.) at 20 μM during 1 h at 37 °C in 50 mM phosphate/200 mM NaCl (pH 7.4); copies: 12

Amyloid β 1-42 monomer [2] = molecular target: T2, Amyloid β 1-42 monomer (UniProt P05067 672-713); test: as above
T2 construct: printed molecular weight 4512 g/mol; numbers count on: the Aβ peptide; read out with antibody 4G8 in the dot blot; also called Aβ42; Aβ42 monomer; source: bought: Peptide Institute, Inc. (Japan), used without further purification

Amyloid β 1-42 oligomer [3] = molecular target: T1, Amyloid β 1-42 oligomer; test: far-Western, overlay or dot blot + AUC; number of binding sites on bFg worked out from the concentrations of Aβ42 species (18 μM monomer, about 0.17 μM oligomer) and of bFg at which the interaction was seen
Amyloid β 1-42 monomer [4] = molecular target: T2, Amyloid β 1-42 monomer; test: as above

B1: human fibrinogen (complex)
chain 1: ADSGEGDFLAEGGGVRGPRVVERHQSACKDSDWPFCSDEDWNYKCPSGCRMKGLIDEVNQDFTNRINKLKNSLFEYQKNNKDSHSLTTNIMEILRGDFSSANNRDNTYNRVSEDLRSRIEVLKRKVIEKVQHIQLLQKNVRAQLVDMKRLEVDIDIKIRSCRGSCSRALAREVDLKDYEDQQKQLEQVIAKDLLPSRDRQHLPLIKMKPVPDLVPGNFKSQLQKVPPEWKALTDMPQMRMELERPGGNEITRGGSTSYGTGSETESPRNPSSAGSWNSGSSGPGSTGNRNPGSSGTGGTATWKPGSSGPGSTGSWNSGSSGTGSTGNQNPGSPRPGSTGTWNPGSSERGSAGHWTSESSVSGSTGQWHSESGSFRPDSPGSGNARPNNPDWGTFEEVSGNVSPGTRREYHTEKLVTSKGDKELRTGKEKVTSGSTTTTRRSCSKTVTKTVIGPDGHKEVTKEVVTSEDGSDCPEAMDLGTLSGIGTLDGFRHRHPDEAAFFDTASTGKTFPGFFSPMLGEFVSETESRGSESGIFTNTKESSSHHPGIAEFPSRGKSSSYSKQFTSSTSYNRGDSTFESKSYKMADEAGSEADHEGTHSTKRGHAKSRPV
chain 2: QGVNDNEEGFFSARGHRPLDKKREEAPSLRPAPPPISGGGYRARPAKAAATQKKVERKAPDAGGCLHADPDLGVLCPTGCQLQEALLQQERPIRNSVDELNNNVEAVSQTSSSSFQYMYLLKDLWQKRQKQVKDNENVVNEYSSELEKHQLYIDETVNSNIPTNLRVLRSILENLRSKIQKLESDVSAQMEYCRTPCTVSCNIPVVSGKECEEIIRKGGETSEMYLIQPDSSVKPYRVYCDMNTENGGWTVIQNRQDGSVDFGRKWDPYKQGFGNVATNTDGKNYCGLPGEYWLGNDKISQLTRMGPTELLIEMEDWKGDKVKAHYGGFTVQNEANKYQISVNKYRGTAGNALMDGASQLMGENRTMTIHNGMFFSTYDRDNDGWLTSDPRKQCSKEDGGGWWYNRCHAANPNGRYYWGGQYTWDMAKHGTDDGVVWMNWKGSWYSMRKMSMKIRPFFPQQ
chain 3: YVATRDNCCILDERFGSYCPTTCGIADFLSTYQTKVDKDLQSLEDILHQVENKTSEVKQLIKAIQLTYNPDESSKPNMIDAATLKSRKMLEEIMKYEASILTHDSSIRYLQEIYNSNNQKIVNLKEKVAQLEAQCQEPCKDTVQIHDITGKDCQDIANKGAKQSGLYFIKPLKANQQFLVYCEIDGSGNGWTVFQKRLDGSVDFKKNWIQYKEGFGHLSPTGTTEFWLGNEKIHLISTQSAIPYALRVELEDWNGRTSTADYAMFKVGPEADKYRLTYAYFAGGDAGDAFDGFDFGDDPSDKFFTSHNGMQFSTWDNDNDKFEGNCAEQDGSGWWMNKCHAGHLNGVYYQGGTYSKASTPNGYDNGIIWATWKTRWYSMKKTTMKIIPFNRLTIGEGQQHHLGGAKQAGDV
modifications: Natural plasma hexamer (AαBβγ)2, about 340 kDa, disulfide-linked and N-glycosylated, fibrinopeptides A and B retained. Aα is the 610-residue plasma form (the paper gives αC as 221-610); mature 1-610 =
In the case of B1, the Kd (Amyloid β 1-42 oligomer [1]) is reported as 1400 ± 200 nM and the Kd (Amyloid β 1-42 monomer [2]) is reported as at least 100000 nM.

B2: bovine fibrinogen (complex)
chain 1: EDGSDPPSGDFLTEGGGVRGPRLVERQQSACKETGWPFCSDEDWNTKCPSGCRMKGLIDEVDQDFTSRINKLRDSLFNYQKNSKDSNTLTKNIVELMRGDFAKANNNDNTFKQISEDLRSRIEILRRKVIEQVQRIKVLQKNVRDQLVDMKRLEVDIDIKIRSCKGSCSRALEHKVDLEDYKNQQKQLEQVIAINLLPSRDIQYLPLIKMSTITGPVPREFKSQLQEAPLEWKALLEMQQTKMVLETFGGDGHARGDSVSQGTGLAPGSPRKPGTSSIGNVNPGSYGPGSSGTWNPGRPEPGSAGTWNPGRPEPGSAGTWNPGRPEPGSAGTWNPGRPEPGSAGTWNPGRPEPGSAGTWNTGSSGSSSFRPDSSGHGNIRPSSPDWGTFREEGSVSSGTKQEFHTGKLVTTKGDKELLIDNEKVTSGHTTTTRRSCSKVITKTVTNADGRTETTKEVVKSEDGSDCGDADFDWHHTFPSRGNLDDFFHRDKDDFFTRSSHEFDGRTGLAPEFAALGESGSSSSKTSTHSKQFVSSSTTVNRGGSAIESKHFKMEDEAESLEDLGFKGAHGTQKGHTKARPARGIHTSPLGEPSLTP
chain 2: QFPTDYDEGQDDRPKVGLGARGHRPYDKKKEEAPSLRPVPPPISGGGYRARPATATVGQKKVERKPPDADGCLHADPDLGVLCPTGCKLQDTLVRQERPIRKSIEDLRNTVDSVSRTSSSTFQYITLLKNMWKGRQNQVQDNENVVNEYSSHLEKHQLYIDETVKNNIPTKLRVLRSILENLRSKIQKLESDVSTQMEYCRTPCTVTCNIPVVSGKECEKIIRNEGETSEMYLIQPEDSSKPYRVYCDMKTEKGGWTVIQNRQDGSVDFGRKWDPYKQGFGNIATNAEGKKYCGVPGEYWLGNDRISQLTNMGPTKLLIEMEDWKGDKVTALYEGFTVQNEANKYQLSVSKYKGTAGNALIEGASQLVGENRTMTIHNSMFFSTYDRDNDGWKTTDPRKQCSKEDGGGWWYNRCHAANPNGRYYWGGAYTWDMAKHGTDDGVVWMNWQGSWYSMKKMSMKIRPYFPEQ
chain 3: YVATRDNCCILDERFGSYCPTTCGIADFLNNYQTSVDKDLRTLEGILYQVENKTSEARELVKAIQISYNPDQPSKPNNIESATKNSKSMMEEIMKYETLISTHESTIRFLQEVYNSNSQKIVNLRDKVVQLEANCQEPCQDTVKIHDVTGRDCQDVANKGAKESGLYFIRPLKAKQFLVYCEIDGSGNGWTVFQKRLDGSLDFKKNWIQYKEGFGHLSPTGTGNTEFWLGNEKIHLISTQSSIPYVLRIQLEDWNGRTSTADYASFKVTGENDKYRLTYAYFIGGDAGDAFDGYDFGDDSSDKFFTSHNGMQFSTWDSDNDKYDGNCAEQVGIGWWMNKCHAGHLNGVYYQGGTYSKTSTPNGYDNGIIWATWKSRWYSMKKTTMKIIPLNRLAIGEGQQHQLGGAKQVGVEHHVEIEYD
notes: fibrinogen Aα chain, bovine; fibrinogen Bβ chain, bovine; fibrinogen γ chain, bovine; About 340 kDa, six polypeptide chains (two Aα, two Bβ, two γ); also called bFg; source: bought: Wako Pure Chemical Industries (from plasma), purified via size-exclusion chromatography (monomer fractions); copies: 2 + 2 + 2
B2 was tested, and the “stoichiometry N” value (Amyloid β 1-42 oligomer [3]) was at least 2, the “stoichiometry N” value (Amyloid β 1-42 monomer [4]) was at most 6 and the Kd (Amyloid β 1-42 oligomer [1]) was 200 ± 50 nM. It also gave a Kd (Amyloid β 1-42 monomer [2]) of about 1000 nM.

Source: article PMC12447488, “Targeting Both Monomer and Oligomer with Fibrinogen Efficiently Suppresses Amyloid Fibril Formation and Cell Toxicity of Amyloid β 1‑42” (ACS Chemical Neuroscience, 2025)
